Data reported in article PMC6769508, “Cooperative Binding of KaiB to the KaiC Hexamer Ensures Accurate Circadian Clock Oscillation in Cyanobacteria” (International Journal of Molecular Sciences, 2019).
Positions count from the first letter of the chain named. “And” between values parts separate entries of the source, which are not always exact repeats. Equal values may be shown once.

B1: TeKaiB, wild-type T. elongatus KaiB (natural protein, Thermosynechococcus elongatus, UniProt Q79V61 1-108, looked up)
chain: MAPLRKTYVLKLYVAGNTPNSVRALKTLNNILEKEFKGVYALKVIDVLKNPQLAEEDKILATPTLAKVLPPPVRRIIGDLSNREKVLIGLDLLYEEIGDQAEDDLGLE
notes: KaiB, Thermosynechococcus elongatus (strain BP-1), wild type; source: E. coli, GST-tagged, purified after cleavage of the GST-tag
B2: TeKaiBDD, TeKaiB with the DD mutation (Arg23 and Lys26 to aspartate) (natural protein, Thermosynechococcus elongatus, UniProt Q79V61 1-108, looked up)
chain: B1 chain with R23D, K26D
notes: KaiB, Thermosynechococcus elongatus (strain BP-1), Arg23 and Lys26 substituted with aspartate; Named only in the SEC methods; source: E. coli, GST-tagged, purified after cleavage of the GST-tag
B3: TeKaiCDD, T. elongatus KaiC mutant with Ser431 and Thr432 substituted by aspartate residues (natural protein, Thermosynechococcus elongatus, UniProt Q79V60 1-518, looked up)
chain: MTNLPEHQSSPTEQSSAEVKKIPTMIEGFDDISHGGLPQGRTTLVSGTSGTGKTLFAVQFLYNGITIFNEPGIFVTFEESPQDIIKNALSFGWNLQSLIDQGKLFILDASPDPDGQEVAGDFDLSALIERIQYAIRKYKATRVSIDSVTAVFQQYDAASVVRREIFRLAFRLKQLGVTTIMTTERVDEYGPVARFGVEEFVSDNVVILRNVLEGERRRRTVEILKLRGTTHMKGEYPFTINNGINIFPLGAMRLTQRSSNVRVSSGVKTLDEMCGGGFFKDSIILATGATGTGKTLLVSKFLETGCQQGERALLFAYEESRAQLSRNASSWGIDFEELERRGLLRIICAYPESAGLEDHLQIIKSEIADFKPSRVAIDSLSALARGVSNNAFRQFVIGVTGFAKQEEITGFFTNTTDQFMGSNSITESHIDDITDTILLLQYVEIRGEMSRAINVFKMRGSWHDKGIREYVITEKGAEIRDSFRNFEGIISGTPTRISVDEKTELARIAKGMQDLESE
notes: KaiC, Thermosynechococcus elongatus (strain BP-1), Ser431 and Thr432 substituted by aspartate (mimics the fully phosphorylated form); Seen as a homohexamer by native MS; also called TeKaiCDD homohexamer; source: E. coli, GST-tagged, purified after cleavage of the GST-tag
B4: TeKaiB_(10–108), N-terminal truncated mutant of T. elongatus KaiB (domain or fragment, Thermosynechococcus elongatus, UniProt Q79V61 10-108, looked up)
chain: LKLYVAGNTPNSVRALKTLNNILEKEFKGVYALKVIDVLKNPQLAEEDKILATPTLAKVLPPPVRRIIGDLSNREKVLIGLDLLYEEIGDQAEDDLGLE
notes: KaiB, Thermosynechococcus elongatus (strain BP-1), residues 10-108 (N-terminal segment deleted); source: E. coli, GST-tagged, purified after cleavage of the GST-tag
B5: TeKaiB_(10–108/DD), TeKaiB_(10–108) with Arg23 and Lys26 replaced with aspartate (domain or fragment, Thermosynechococcus elongatus, UniProt Q79V61 10-108, looked up)
chain: B4 chain with R14D, K17D
notes: KaiB, Thermosynechococcus elongatus (strain BP-1), residues 10-108, Arg23 and Lys26 substituted with aspartate; source: E. coli, GST-tagged, purified after cleavage of the GST-tag

Assays:
[1] = target: the molecule itself; experiment: SEC; Superdex 200 increase; 20 mM Tris-HCl (pH 8.0), 150 mM NaCl, 5 mM MgCl2, 0.5 mM EDTA, 1 mM DTT; TeKaiB or TeKaiBDD in the absence of KaiC
[2] = target: the molecule itself; experiment: native MS; TeKaiCDD (20 µM) titrated with KaiB or SasA proteins, incubated at 37 °C for 6 h, buffer-exchanged into 150 mM ammonium acetate, pH 6.8; nanoflow ESI
[3] = target: B3; experiment: as above; settings: both partners purified

| stoichiometry N [3] | Binder | stoichiometry N [1] | other results |
| --- | --- | --- | --- |
|  | B1 | 4 |  |
|  | B2 | 4 |  |
|  | B3 |  | stoichiometry N [2]: 6 |
| 6 binder chains per KaiC hexamer | B4 |  |  |
| 1 binder chains per KaiC hexamer and 3 binder chains per KaiC hexamer and 2 binder chains per KaiC hexamer | B5 |  |  |
